± gives the standard deviation.
Assay: protein stability index of a GFP-peptide fusion (GPS, HEK-293T) (PSI 1-6); higher = more stable
Details: c terminus: a fixed tail appended
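Further: 24-mer peptide tiles fused after GFP, lentivirally expressed, FACS-sorted into six equal bins by GFP/DsRed ratio, decoded by Illumina sequencing, PSI is the read-weighted mean bin number.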

Sequence	protein stability index (treatment: DMSO)	protein stability index (treatment: MLN4924 1 uM, 8 h)
EEEEERWEWSPAGLQSYQQALLRI [SERTAD3]	3.46 ± 0.29	3.43 ± 0.17
AGPGAPEPLAEGAAAEFSSLLRRI [SLC35F2]	3.9 ± 0.32	3.77 ± 0.46
LKVVHELPACTLCAGPLEDAVTIP [TRIM15]	2.76 ± 0.13	3.15 ± 0.26
NKFASFIDKVRFLEQQNQVLETKW [KRT71]	2.58 ± 0.42	2.49 ± 0.4
WKSHLRNVQRPLLQAPFLPPKPPP [RHOBTB2]	3.03 ± 0.21	3.15 ± 0.32
TKEGGMLAYYEVCSWKGATKQRIQ [CHIT1]	2.26 ± 0.53	2.91 ± 0.65
YSSGPQSWYPKANNQDFIPFTKKR [ZC2HC1C]	3.07 ± 0.54	3.68 ± 0.22
GVRVNNRFELINIDDLEDDPVVNG [TCF25]	4.41 ± 0.16	4.51 ± 0.18
LLVQDATPVSNSLLPEKAFSDIPS [GFOD1]	3.35 ± 0.24	3.37 ± 0.22
AKQTKRMLDMKVNPIQGLASKWDY [COX4I1]	2.93 ± 0.35	2.72 ± 0.34
SCIMENGHQPGTGPGDGPPEIAQN [SMTNL2]	4.95 ± 0.28	4.99 ± 0.074
PGGDQGGPPVGPLSLGLATVDIQN [WAS]	4.75 ± 0.22	4.71 ± 0.087
DGRFEKRQGNPSWKKQQKCDECGK [ZNF396]	5.03 ± 0.2	5.2 ± 0.11
GYVSQQGGQRSTPLIIAARNGHAK [FEM1B]	3.74 ± 0.15	3.8 ± 0.34
ERLKVMCEEALCSNLSVENVADTL [SPOPL]	3.84 ± 0.36	4.09 ± 0.39
KISKQFVAPADVRRLLSYCKGRDH [ZSWIM9]	2.49 ± 0.32	2.81 ± 0.27
VSASRDKTLRVWDLKDDGNMMKVL [WSB1]	3.2 ± 0.09	3.35 ± 0.25
VFDLPESLGGIRACTLTVFPPEET [KLHL13]	3.33 ± 0.41	3.39 ± 0.37
DSGQNAWLSYRLLKASEPGLFAVG [PCDHGA10]	2.14 ± 0.09	2.13 ± 0.063
ECHIVVLTDDDVVDWDEEYPPQMG [BTBD10]	3.34 ± 0.29	3.73 ± 0.42
LQNEVPPQPDPVFLEALSSRYLGD [SERTAD3]	4.32 ± 0.15	4.25 ± 0.14
VTSFPDADAFHHQVHDDDLLSSSE [EMD]	5.38 ± 0.33	5.33 ± 0.21

Sequence	protein stability index (treatment: DMSO)	protein stability index (treatment: MLN4924 1 uM, 8 h)
LRHSFQKQQREKTRWLNSGRGDEA [ADD1]	3.63 ± 0.5	3.92 ± 0.35
TQVLEDSEDSFCRRHPGLGKAFPS [TRAF3IP2]	4.17 ± 0.35	4.12 ± 0.39
MMRMFSENLAHHLEIDSGVITLDP [TRIM15]	2.52 ± 0.16	2.69 ± 0.37
KALLYLPIAPEVEDPEENPYGPPP [RBBP5]	3.94 ± 0.31	4.07 ± 0.42
SIVILDNSPGAYRSHPDNAIPIKS [CTDNEP1]	2.82 ± 0.27	2.91 ± 0.57
QLQVPTLRQQCAQVLRNNPDALSD [ELOA2]	4.24 ± 0.36	4.42 ± 0.13
LPCVVQEGAIVMARGRHVGSSETN [PYCR3]	4.42 ± 0.36	–
IVGFGLYGSIHGPTDYQVNIQIIE [BTBD1]	2.63 ± 0.4	2.6 ± 0.47
ADLSQKSPELQEEFGYNAETQKLL [ARFIP2]	4.95 ± 0.37	5.14 ± 0.17
TAAPPPPPPSRPSVAVPPPPPNRM [WASL]	4.82 ± 0.3	4.87 ± 0.2
AAAGEQASGAEAEPGPAGPPPPPS [BTBD1]	5.446 ± 0.021	5.52 ± 0.19
HQQVEEALSFTLLGSAPLDQEPLL [NEK8]	3.69 ± 0.25	3.75 ± 0.12
LPLSHIAAQMMDIWVPIKIGALTY [ACSBG2]	2.79 ± 0.76	2.73 ± 0.82
VVCAFFKQGQCTKGDKCKFSHDLT [ZC3H15]	4.26 ± 0.64	4.1 ± 0.47
FLVGLLFVQRSGNYFVTMFDDYSA [SLC6A17]	3.05 ± 0.76	3.27 ± 0.38
SLTVPLLGAMMLLESPIDPQPLSF [APMAP]	2.46 ± 0.56	2.81 ± 0.51
AIGRVRVLEEQLVKAKEQIENYKK [FUT8]	4.03 ± 0.16	4.28 ± 0.27
LGSWLVPFAYLTVLDLSKSLSAAL [POMT2]	3.19 ± 0.56	3.34 ± 0.37
VCRIGDWLQERYEIVGNLGEGTFG [CLK3]	2.22 ± 0.42	2.37 ± 0.33
RVVHWYFKLLDKNSSGDIGKKEIK [SMOC2]	2.46 ± 0.97	2.41 ± 0.4
LETRFKIQQLLEPQQYMAFLPHHI [FBXO34]	2.36 ± 0.49	2.27 ± 0.33
RPEITSRAINLLFDIARIERCNQL [ZER1]	2.47 ± 0.55	2.35 ± 0.59

Sequence	protein stability index (treatment: DMSO)	protein stability index (treatment: MLN4924 1 uM, 8 h)
PHFLQGGPFPLPYTAPGGYLDVGS [TBX6]	2.93 ± 0.56	2.76 ± 0.33
FLRCVTAALIYFAISITAIAKYSD [CMTM3]	3.41 ± 0.29	3.43 ± 0.32
LSDNATAFSNRSKQLRRQMWWRGC [VAMP4]	2.54 ± 0.048	2.67 ± 0.33
ALEQREQDAVDQVKVIMDALDERA [TRIM29]	5.33 ± 0.097	5.31 ± 0.29
GLFRKSGVKSRIQALRQMNEGAID [DLC1]	3.36 ± 0.1	3.71 ± 0.12
TEDELRVRHLEEENRGIVVLGINR [AUH]	4.29 ± 0.15	4.33 ± 0.39
SSQSSLAQEEEEEDQGRTRKRKQS [DDIT3]	5.55 ± 0.32	5.44 ± 0.09
SNKVQDSAPVETPRGKPPLNTRSQ [HMOX1]	5.21 ± 0.38	5.26 ± 0.27
SRRASESSLSSESSESSDAGLCMD [CDC25B]	5.06 ± 0.39	5.33 ± 0.18
QSFISWTGDGWEFKLADPDEVARR [ETS2]	3.58 ± 0.1	3.76 ± 0.19
FGRGSRTVDLELELQIELLRETKR [ARFIP2]	2.26 ± 0.15	2.32 ± 0.26
PVGQEIVIPFKVDTILKYLKDHFS [IQUB]	2.33 ± 0.73	1.95 ± 0.39
SSPKFREEAAFPGRRVNAKMPVYS [ELOA2]	3.3 ± 0.17	3.48 ± 0.14
ALVAPLLRLENNHCHIEESEHVLK [VPS39]	3.26 ± 0.11	3.32 ± 0.2
DMKPITVGGKIVGSLCAIAGVLTI [KCNA4]	2.88 ± 0.57	3.11 ± 0.32
VSVIQSIPIFNETGRFSFTLPYPV [HACD3]	2.91 ± 0.72	2.68 ± 0.76
VFDLRMMVANILNNEAFMNQEITK [RHOBTB2]	2.72 ± 0.47	2.43 ± 0.46
ICARACNTTLTQYQLLATHVPTVW [RHOBTB1]	2.52 ± 0.49	2.43 ± 0.7
VSLLENNIYVHDLLTFQQITTVSK [VPS39]	2.97 ± 0.35	2.41 ± 0.49
EEPELVFTLGDCDVIQALDLSVPL [FKBP8]	3.66 ± 0.28	3.48 ± 0.41
YQLGEEAMEKFREDEGFLREEERP [KCNA3]	5.13 ± 0.2	5.27 ± 0.24
